# Assay results reported in US20100233189A1.
# B1: M22 Fab (Fab fragment of human monoclonal thyroid stimulating autoantibody hMAb TSHR1) (Fab, from another filing, V domains shown)
# VH: QVQLVQSGAEVKKPGESLKISCRGSGYRFTSYWINWVRQLPGKGLEWMGRIDPTDSYTNYSPSFKGHVTVSADKSINTAYLQWSSLKASDTGMYYCARLEPGYSSTWSVNWGQGTLVTVSS
# VL: LTVLTQPPSVSGAPRQRVTISCSGNSSNIGNNAVNWYQQLPGKAPKLLIYYDDQLPSGVSDRFSGSRSGTSASLAIRGLQSEDEADYYCTSWDDSLDSQLFGGGTRLTVLG
# Target: human TSHR with mutation K209E expressed in CHO cells (human) (UniProt P16473)
# Sequence of UniProt P16473 (P16473 22-764 K209E/E727D): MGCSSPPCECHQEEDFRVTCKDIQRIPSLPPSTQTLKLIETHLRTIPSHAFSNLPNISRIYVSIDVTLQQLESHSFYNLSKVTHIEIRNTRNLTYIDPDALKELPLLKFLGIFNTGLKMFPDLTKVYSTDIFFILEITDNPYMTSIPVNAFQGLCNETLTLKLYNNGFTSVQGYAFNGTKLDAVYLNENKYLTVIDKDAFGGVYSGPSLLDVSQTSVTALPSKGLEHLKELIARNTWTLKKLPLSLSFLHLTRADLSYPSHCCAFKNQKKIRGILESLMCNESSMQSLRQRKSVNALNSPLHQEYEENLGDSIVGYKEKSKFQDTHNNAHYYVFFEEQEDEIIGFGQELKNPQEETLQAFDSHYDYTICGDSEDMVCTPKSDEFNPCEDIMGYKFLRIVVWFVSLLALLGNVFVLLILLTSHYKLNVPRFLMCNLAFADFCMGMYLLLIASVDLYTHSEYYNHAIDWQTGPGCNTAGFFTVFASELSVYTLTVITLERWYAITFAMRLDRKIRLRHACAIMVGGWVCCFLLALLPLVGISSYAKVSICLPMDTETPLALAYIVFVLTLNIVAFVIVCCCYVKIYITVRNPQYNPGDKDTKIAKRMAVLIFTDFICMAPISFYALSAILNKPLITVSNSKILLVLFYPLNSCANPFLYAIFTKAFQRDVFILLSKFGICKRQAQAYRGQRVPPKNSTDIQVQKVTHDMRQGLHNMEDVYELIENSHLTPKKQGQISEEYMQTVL
# Assay: cell-based or functional assay
binder,measurement,value
B1,M22 stimulating activity (cyclic AMP production in TSHR expressing CHO cells) (% of activity with the wild type TSHR),< 20
